Where a chain is given by its changes, count along the chain named. Each block holds one binder with its values, some of them ahead of it.
Experiments:
[1] = target: T1, human TIM-3 extracellular domain protein with hFc tag (hTIM-3-hFc) (human, UniProt Q8TDQ0 22-200); assay: ELISA, coated human TIM-3 ECD protein, 0 nM antibody
T1 construct: not shown: human IgG Fc fragment (hFc) of the pCpC vector
T1 sequence: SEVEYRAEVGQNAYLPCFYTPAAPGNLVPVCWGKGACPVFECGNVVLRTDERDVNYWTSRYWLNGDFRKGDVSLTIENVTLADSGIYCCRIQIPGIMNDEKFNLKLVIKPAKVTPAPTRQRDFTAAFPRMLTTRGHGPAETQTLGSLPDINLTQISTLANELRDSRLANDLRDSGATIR

[2] = target: T1, human TIM-3 extracellular domain …; assay: ELISA, coated human TIM-3 ECD protein, 0.0001 nM antibody
[3] = target: T2, monkey TIM-3 extracellular domain protein with hFc tag (cTIM-3-hFc) (monkey); assay: ELISA, coated monkey TIM-3 ECD protein, 0 nM antibody
T2 construct: not shown: human IgG Fc fragment (hFc) of the pCpC vector
T2 chain: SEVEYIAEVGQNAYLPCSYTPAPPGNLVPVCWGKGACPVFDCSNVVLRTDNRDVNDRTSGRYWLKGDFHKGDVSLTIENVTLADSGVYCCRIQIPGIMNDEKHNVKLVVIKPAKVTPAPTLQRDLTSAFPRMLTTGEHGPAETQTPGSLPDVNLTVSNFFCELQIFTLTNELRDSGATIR

[4] = target: T2, monkey TIM-3 extracellular domain …; assay: ELISA, coated monkey TIM-3 ECD protein, 0.0007 nM antibody
[5] = target: T2, monkey TIM-3 extracellular domain …; assay: ELISA, coated monkey TIM-3 ECD protein, 6.6667 nM antibody
[6] = target: T3, TIM-3 protein on human peripheral blood mononuclear lymphocytes (PBMC) (human, UniProt Q8TDQ0 22-301); assay: cell-based or functional assay
T3 sequence: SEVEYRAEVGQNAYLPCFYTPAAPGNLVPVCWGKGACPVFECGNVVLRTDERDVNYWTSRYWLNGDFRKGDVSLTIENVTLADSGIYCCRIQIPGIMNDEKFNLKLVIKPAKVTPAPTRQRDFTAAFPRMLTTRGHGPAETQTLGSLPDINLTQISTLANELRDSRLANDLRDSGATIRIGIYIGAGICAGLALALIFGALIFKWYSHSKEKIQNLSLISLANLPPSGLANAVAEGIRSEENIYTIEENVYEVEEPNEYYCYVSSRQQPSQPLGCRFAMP

[7] = target: T4, human TIM-3 on CHOK1 stable cell line (CHOK1-hTIM-3) (human, UniProt Q8TDQ0 22-301); assay: FACS, CHOK1-hTIM-3 cells, 0.32 nM antibody
T4 sequence: T3 sequence

[8] = target: T5, murine TIM-3 extracellular domain protein with hFc tag (mTIM-3-hFc) (mouse, UniProt Q8VIM0 29-191); assay: ELISA, coated mouse TIM-3 ECD protein, 0.6667 nM antibody
T5 construct: also called mouse TIM-3 extracellular domain protein; not shown: human IgG Fc fragment (hFc) of the pCpC vector
T5 chain: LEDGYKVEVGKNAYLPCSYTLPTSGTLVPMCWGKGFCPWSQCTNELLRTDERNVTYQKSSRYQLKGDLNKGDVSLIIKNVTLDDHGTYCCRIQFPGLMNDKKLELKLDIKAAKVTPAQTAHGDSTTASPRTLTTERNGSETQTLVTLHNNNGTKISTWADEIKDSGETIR

[9] = target: T6, murine TIM-3 protein with hFc tag (mTIM-3-hFc protein) (mouse; human, UniProt Q8VIM0 29-191); assay: ELISA, coated mTIM-3-hFc; antibody 0.6667 nM
T6 construct: Made in HEK293 cells; also called mouse TIM-3 extracellular domain protein; not shown: human IgG Fc fragment (hFc) of the pCpC vector
T6 chain: T5 chain
Source text: (§1) The amino acid sequence 22-200 of the extracellular domain of the human TIM-3 protein described in the step of Example 1 (as shown in SEQ ID NO. 71 in the sequence listing) was cloned into a pCpC vector having a human IgG Fc fragment (hFc), and transfected into HEK293 cells. The cell culture medium was collected, and purified to obtain the human TIM-3 protein with hFc tag (herein referred to as hTIM-3-hFc protein). The amino acid sequence 22-201 of the extracellular domain of the monkey TIM-3 protein (as shown in SEQ ID NO. 72 in the sequence listing) was cloned into a pCpC vector having a human IgG Fc fragment (hFc), and transfected into HEK293 cells. The cell culture medium was collected, and purified to obtain the monkey TIM-3 protein with hFc tag (herein referred to as cTIM-3-hFc protein). […] The cell culture medium was collected, and purified to obtain the murine TIM-3 protein with hFc tag (herein referred to as mTIM-3-hFc protein). Purified human, monkey, and mouse TIM-3 extracellular domain proteins (hTIM-3-hFc, cTIM-3-hFc, and mTIM-3-hFc) were diluted with PBS to a final concentration of 1.0 μg/ml and then added to a 96-well ELISA plate with 100 μl per well. The plate was sealed with plastic film and incubated overnight at 4° C. The plate was washed 4 times with the plate washing solution (PBS+0.01% Tween20) on the next day, and added with the blocking solution (PBS+0.01% Tween20+1% BSA) and sealed at room temperature for 1-2 hours. The blocking solution was poured out. 50-100 μl of the antibody sample to be tested was added to each well. The plate was incubated at 37° C. for 1-2 hours, and washed 2-3 times with plate washing solution (PBS+0. 01% Tween20). HRP (horseradish peroxidase) labeled secondary antibody was added. The plate was incubated at 37° C. for 1-2 hours, and washed 2-3 times with plate washing solution (PBS+0. 01% Tween20). […] of TMB substrate was added to each well. After incubated at room temperature for 15-30 minutes, the plate was added with […] stop solution (1.0N HCl) to each well. An ELISA plate reader (TiterMax 384plus, Molecular Device) was used to read the A450 nm value.

[10] = target: T6, murine TIM-3 protein with hFc tag …; assay: ELISA, coated mTIM-3-hFc; antibody 6.6667 nM
Source text: as §1

B1: 57F4E5 fully human TIM-3 antibody (human IgG4, kappa) (antibody, V domains shown)
VH: EVQLVESGGGLVQPGGSLRLSCAASGFTFSSYWMSWVRQAPGKGLEWVANIKQDGSEKYYVDSVKGRFTISRDSAKNSLYLQMNSLRAEDTAMYFCARDSNFFDYWGQGTLVTVSS
VL: ETVMTQSPATLSVSPGERATLSCRASQSVSSNLAWYQRKPGQAPRLLIYFSSTRATGIPARFSGSGSGTEFTLTISSLQSEDFAVYYCQQYNNWPLTFGGGTKVEIK
OD450 [1]: 0.08
OD450 [2]: 0.08
OD450 [3]: 0.16
OD450 [4]: 0.18
OD450 [5]: 3.29
IFN-γ production (donor X); antibody 0.1 µg/ml, N = 1 [6]: 2800 pg/mL
IFN-γ production (donor X); antibody 0.1 µg/ml, N = 2 [6]: 2980 pg/mL
IFN-γ production (donor X); antibody 1 µg/ml, N = 1 [6]: 3550 pg/mL
IFN-γ production (donor X); antibody 1 µg/ml, N = 2 [6]: 3150 pg/mL
IFN-γ production (donor X); antibody 10 µg/ml, N = 1 [6]: 3080 pg/mL
IFN-γ production (donor X); antibody 10 µg/ml, N = 2 [6]: 3340 pg/mL
IFN-γ production (donor X); antibody '0' (4th head as printed), N = 1 [6]: 2870 pg/mL
IFN-γ production (donor X); antibody '0' (4th head as printed), N = 2 [6]: 2740 pg/mL
IFN-γ production (donor X); antibody '0' (5th head as printed), N = 1 [6]: 2160 pg/mL
IFN-γ production (donor X); antibody '0' (5th head as printed), N = 2 [6]: 2400 pg/mL
Mean fluorescence intensity [7]: 69.7
OD450 [8]: 0.28

B2: 134H3G6 (TIM-3 antibody purified from hybridoma, chimeric antibody of Example 2) (antibody, V domains shown)
VH: EVQLVESGGGLVQPGGSLRLSCAASGFTFSNSWMTWVRQAPGKGLEWVANIKQAGTEKYYVDSVKGRFTISRDNAKNSLYLQMNSLRAEDTAVYYCNSGSNYFDYWGQGTLVTVSS
VL: B1 VL with T2I, S26R, S28N, V29F, S30Y, R38Q, F50G, S51A
notes: From hybridoma of Harbour H2L2 transgenic mice: human variable regions, rat constant regions
OD450 [9]: 0.66
OD450 [10]: 0.67

B4: 57F4E5 (TIM-3 antibody purified from hybridoma, chimeric antibody of Example 2) (antibody, V domains shown)
VH: B1 VH
VL: B1 VL
notes: as for B2
OD450 [9]: 0.64
OD450 [10]: 0.69

B5: 18D2H2 (TIM-3 antibody purified from hybridoma, chimeric antibody of Example 2) (antibody, V domains shown)
VH: EVQLVESGGDLVQPGGSLRLSCAASGFTFSTYWMTWVRQAPGRGLEWVANIKQDGSAKYYVDSVKGRFTLSRDDAKNSLYLQMNSLRAEDTAVYYCARGSNWFDYWGQGTLVTVSS
VL: B1 VL with S26N, S28N, S30Y, R38Q, F50D, S51A, I58F
notes: as for B2
OD450 [9]: 0.66
OD450 [10]: 0.69

B6: 39E5H1 (TIM-3 antibody purified from hybridoma, chimeric antibody of Example 2) (antibody, V domains shown)
VH: EVQLVESGGGLVQPGGSLRLSCAASGFTFSSYWMSWVRQAPGKGLEWVANIKRGGSERYYVDSVKGRFTISGDNAKNSVYLQMNSLRAEDTAVYYCARGSNWFDPWGQGTLVTVSS
VL: B1 VL with T10I, S30Y, R38Q, P40L, F50D, S51A, L96I, G100Q, K103R, V104L
notes: as for B2
OD450 [9]: 0.66
OD450 [10]: 0.68

B9: 7A4F10 (TIM-3 antibody purified from hybridoma, chimeric antibody of Example 2) (antibody, V domains shown)
VH: EVQLLESGGGLVQPGGSLRLSCAASGFTFRTHLISWVRQAPGKGLEWVAAITGSGGSTYYADSVKGRFIISRDNSKNTLFLQMNSLRAEDTAVYYCAKDGGSGSYDDFWGQGTLVTVSS
VL: ETVLTQSPVTLSLSPGERATLSCRASQSVGSYLAWYQQKPGQAPRLLIYDASNRATGIPARFSGSGSGTDFTLTISSLEPEDFAVYYCQQRSNWPPTFGQGTKVEIK
notes: as for B2
OD450 [9]: 0.67
OD450 [10]: 0.67

B10: 34B6D8 (TIM-3 antibody purified from hybridoma, chimeric antibody of Example 2) (antibody, V domains shown)
VH: B6 VH with S31T, S35T, G44R, R53Q, S56G, E57D, R58K, G72T, V79L
VL: EIVMTQSPATLSMSPGERATLSCRASQSVYDNLAWYQQKPGQAPRLLIYGASTRATGIPARFSGSGSGTEFTLTISSLQSEDFALYYCQQYTHWPITFGQGTRLEIK
notes: as for B2
OD450 [9]: 0.65
OD450 [10]: 0.74

Next, values leading:

OD450 [1]: 0.08
OD450 [2]: 0.1
OD450 [3]: 0.13
OD450 [4]: 0.15
OD450 [5]: 3.19
IFN-γ production (donor X); antibody 0.1 µg/ml, N = 1 [6]: 2610 pg/mL
IFN-γ production (donor X); antibody 0.1 µg/ml, N = 2 [6]: 2720 pg/mL
IFN-γ production (donor X); antibody 1 µg/ml, N = 1 [6]: 3250 pg/mL
IFN-γ production (donor X); antibody 1 µg/ml, N = 2 [6]: 2890 pg/mL
IFN-γ production (donor X); antibody 10 µg/ml, N = 1 [6]: 3460 pg/mL
IFN-γ production (donor X); antibody 10 µg/ml, N = 2 [6]: 3480 pg/mL
IFN-γ production (donor X); antibody '0' (4th head as printed), N = 1 [6]: 2390 pg/mL
IFN-γ production (donor X); antibody '0' (4th head as printed), N = 2 [6]: 2430 pg/mL
IFN-γ production (donor X); antibody '0' (5th head as printed), N = 1 [6]: 2510 pg/mL
IFN-γ production (donor X); antibody '0' (5th head as printed), N = 2 [6]: 2370 pg/mL
Mean fluorescence intensity [7]: 96.6
OD450 [8]: 0.23
B3: 134H3G6 fully human TIM-3 antibody (human IgG4, kappa) (antibody, V domains shown)
VH: B2 VH
VL: B1 VL with T2I, S26R, S28N, V29F, S30Y, R38Q, F50G, S51A

OD450 [1]: 0.08
OD450 [2]: 0.08
OD450 [3]: 0.13
OD450 [4]: 0.15
OD450 [5]: 3.28
IFN-γ production (donor X); antibody 0.1 µg/ml, N = 1 [6]: 2410 pg/mL
IFN-γ production (donor X); antibody 0.1 µg/ml, N = 2 [6]: 3170 pg/mL
IFN-γ production (donor X); antibody 1 µg/ml, N = 1 [6]: 2780 pg/mL
IFN-γ production (donor X); antibody 1 µg/ml, N = 2 [6]: 2030 pg/mL
IFN-γ production (donor X); antibody 10 µg/ml, N = 1 [6]: 3000 pg/mL
IFN-γ production (donor X); antibody 10 µg/ml, N = 2 [6]: 2470 pg/mL
IFN-γ production (donor X); antibody '0' (4th head as printed), N = 1 [6]: 2100 pg/mL
IFN-γ production (donor X); antibody '0' (4th head as printed), N = 2 [6]: 2300 pg/mL
IFN-γ production (donor X); antibody '0' (5th head as printed), N = 1 [6]: 1970 pg/mL
IFN-γ production (donor X); antibody '0' (5th head as printed), N = 2 [6]: 2400 pg/mL
Mean fluorescence intensity [7]: 73.6
OD450 [8]: 0.24
B7: 215A8F2 fully human TIM-3 antibody (human IgG4, kappa) (antibody, V domains shown)
VH: QVQLQQWGAGLLKPSETLSLTCTVYGGSFSGYYWNWIRQPPGKGLEWLGEINHSGSTNYNPSLKRRVTISVDTSKNQFSLKLSSVTAADTAVYYCARVYYYGPFDFWGQGTLVTVSS
VL: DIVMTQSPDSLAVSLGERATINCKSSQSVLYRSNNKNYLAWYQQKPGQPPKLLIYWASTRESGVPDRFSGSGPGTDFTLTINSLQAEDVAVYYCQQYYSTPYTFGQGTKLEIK

OD450 [9]: 0.65
OD450 [10]: 0.68
B8: 215A8F2 (TIM-3 antibody purified from hybridoma, chimeric antibody of Example 2) (antibody, V domains shown)
VH: B7 VH
VL: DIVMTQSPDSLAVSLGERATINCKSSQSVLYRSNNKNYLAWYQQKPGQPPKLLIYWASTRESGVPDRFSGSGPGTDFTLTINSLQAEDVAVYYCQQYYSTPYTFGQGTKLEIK
notes: as for B2

Reference: patent US20220033501A1 (SHANGHAI PHARMAEXPLORER, published 2022)
